Measured values reported in PMC5063806, “Data for peptide-binding assay with oriented immobilization of GRP78 in Biacore” (Data in Brief, 2016).

Target: T1, human GRP78, N-His-tagged (human, UniProt P11021 19-654)
T1 construct: GRP78, human; 6-His tag at the N-terminus; also called N-His-tagged GRP78; not shown: His6, N-terminal, kept
Assay: SPR; modified protocol, Biacore X: N-His-tagged GRP78 covalently immobilised (EDC/NHS, Ni2+ orientation, about 5000~6000 RU) on chip NTA; running buffer HBS-P pH 7.4 with 1 mM glycine; L-peptide 6.25-100 uM; both peptides at 50 uM in Fig. 3; fit with BIAevaluation 4.1, default settings
Details: both partners purified

T1 sequence (P11021 19-654): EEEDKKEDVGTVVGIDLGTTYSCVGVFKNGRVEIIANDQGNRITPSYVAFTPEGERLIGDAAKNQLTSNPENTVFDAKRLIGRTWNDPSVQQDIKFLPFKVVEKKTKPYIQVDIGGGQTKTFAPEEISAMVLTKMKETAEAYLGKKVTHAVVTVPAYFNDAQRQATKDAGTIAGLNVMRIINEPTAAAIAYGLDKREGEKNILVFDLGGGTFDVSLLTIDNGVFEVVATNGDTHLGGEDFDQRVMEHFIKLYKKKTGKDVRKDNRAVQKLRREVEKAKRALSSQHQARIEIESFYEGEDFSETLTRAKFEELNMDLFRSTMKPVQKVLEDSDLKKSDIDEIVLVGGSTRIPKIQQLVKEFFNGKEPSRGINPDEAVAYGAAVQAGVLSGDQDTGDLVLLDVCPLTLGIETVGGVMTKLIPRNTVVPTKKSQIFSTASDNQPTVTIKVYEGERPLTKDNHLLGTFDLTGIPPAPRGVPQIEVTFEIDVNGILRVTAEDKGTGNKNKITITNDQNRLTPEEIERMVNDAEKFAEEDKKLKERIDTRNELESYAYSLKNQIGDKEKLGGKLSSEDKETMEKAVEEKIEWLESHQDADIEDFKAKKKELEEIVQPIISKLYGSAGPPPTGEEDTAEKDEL

## RLLDTNRPLLPY (Probably synthetic) [L-peptide (RLLDTNRPLLPY)]
  Kd: ~10 µM
